How the values were obtained:
MGLL [1] = test: Kinetic analysis: hydrolysis of Coumarin Arachidonate (C-A) by MGLL constructs; format: biochemical, human; settings: estimated; limited by solubility of C-A; read-out: apparent KM for C-A
Text: (§1) A small fluorescent substrate, 4-methyl coumarin butyrate (4MC-B) was used to compare the activity of the engineered mutants to the activity of wt-MGLL (hMGLL 1-303) (SEQ ID NO: 3). The catalytic efficiency (kcat/KM) for the hydrolysis of the 4MC-B was similar for wt-MGLL (hMGLL 1-303) (SEQ ID NO: 3) and all MGLL mutants tested (Table 2). A larger more aliphatic fluorescent substrate, Coumarin Arachidonate (C-A), structurally more closely related to the MGLL natural substrate, 2-AG, was used to compare the activity of wt-MGLL (hMGLL 1-303) (SEQ ID NO: 3) to TEV cleaved mut-MGLL (hMGLL 1-303 L169S, L176S) (SEQ ID NO: 5).
(§2) The Michaelis-Menten parameters for the hydrolysis of 4-methylcoumarin butyrate (4MC-B) and coumarin arachidonate (C-A) substrate were determined using 4-5 nM of MGLL in 20 mM Pipes pH 7 and 150 mM NaCl at 37° C. The change in fluorescence due to substrate hydrolysis was monitored using excitation/emission wavelengths of 335/440 in a Safire II instrument from Tecan. The hyperbolic rates versus substrate concentration curves for the hydrolysis of 4MC-B were fit to the Michaelis-Menten equation using Excel.
The apparent kcat/KM ratio for the hydrolysis of C-A was determined at [S]<<KM. […] The kcat/KM values reported are the average from independent values determined from five substrate concentrations ranging from 700 to 40 nM.

MGLL [2] = test: Kinetic analysis: hydrolysis of 4-methyl coumarin butyrate (4MC-B) by MGLL constructs; format: biochemical, human; settings: substrate 4MC-B; 4-5 nM MGLL, 20 mM Pipes pH 7, 150 mM NaCl, 37° C.; average of 2 or 4 separate assays
Text: as §1, §2

[3] = Thermofluor thermal stability (melting transition) of MGLL; format: physicochemical; settings: for Tm (midpoint of the melting transition): 0.05 mg/ml protein, 1,8-ANS
Text: The Thermofluor® assay is a powerful tool to screen for small molecule inhibitors interacting with a protein's active site or allosteric site. The assay detects small changes in the intrinsic melting temperature of proteins based on binding of ligands. Compounds that interact preferentially with the native form of the protein will increase the Tm, the temperature at which half of the protein is unfolded (Pantoliano et al. 2001). The technique monitors changes in the fluorescent intensity of dyes such as 1-anilinonaphthalene-8-sulfonic acid (1,8-ANS). The fluorescent dyes are quenched in aqueous environments but increase in fluorescence on binding to the hydrophobic core of denatured proteins.
Thermofluor® assays were conducted to characterize wt-MGLL (hMGLL 1-303) (SEQ ID NO: 3) and mut-MGLL (hMGLL 1-303 L169S, L176S) and evaluate if the MGLL mutants could be used for high-throughput screening using Thermofluor®. Three microliters of protein at a concentration of 0.05 mg/ml in 50 mM Pipes pH 7, 200 mM NaCl, 100 μM 1,8-ANS, and 0.001% Tween was added to pre-dispensed compound plates. Wells were overlaid with silicone oil (1 μL, Fluka, type DC 200) to prevent evaporation. Final compound concentrations varied from 150 to 0.15 μM. Assay plates were heated at a rate of 1° C./min for all experiments over a temperature range sufficient to measure protein unfolding. Fluorescence was measured by continuous illumination with UV light (Hamamatsu LC6) supplied via fiber optic and filtered through a custom band-pass filter (380-400 nm; >60D cutoff). Fluorescence emission was detected by measuring light intensity using a CCD camera (Sensys, Roper Scientific) filtered to detect emission at 500±25 nm, resulting in simultaneous and independent readings of all 384 wells. One or more images were collected at each temperature, and the sum of the pixel intensity in a given area of the assay plate was recorded vs temperature, and fit to standard equations to yield the Tm.

[4] = Size exclusion chromatography of MGLL purified in the absence of detergent (aggregation/monomer); format: physicochemical
Procedure: A pilot purification of wt-MGLL (hMGLL 1-303) (SEQ ID NO: 3), performed in the complete absence of detergent, generated no protein (data not shown). A second purification of wt-MGLL (hMGLL 1-303) (SEQ ID NO: 3) was done with detergent in the lysis buffer only. Frozen cell pellets for wt-MGLL (hMGLL 1-303) (SEQ ID NO: 3) were thawed, resuspended, and lysed in Bugbuster® lysis buffer for 1 hour at 4° C. Bugbuster® lysis buffer is a proprietary lysis buffer from […] that contains detergent. The lysate was clarified by centrifugation at 40,000×g for 1 hr. No detergent was added at this point or during the rest of the purification. From this point forward, the purification protocol and buffers were the same as described below for mut-MGLL. An average of 2.2 mg of wt-MGLL (hMGLL 1-303) (SEQ ID NO: 3) per liter of cell culture was obtained.
Mutant MGLL (mut-MGLL) constructs were purified in the absence of detergent. Frozen cell pellets were thawed and resuspended in buffer A (50 mM Hepes buffer pH 7.5, 400 mM NaCl, 5% glycerol, 0.05% BME, 1× Complete EDTA-free protease inhibitor cocktail tablets (Roche)), dounce homogenized and mechanically lysed with a microfluidizer processor (Microfluidics). The extract was clarified by centrifugation at 40,000×g for 1 hr. The cleared lysate was loaded on a 1 ml His-Trap FF Crude column (GE-Healthcare) at 4° C. using the AktaXpress system. For larger preparations, a 5 ml His-Trap FF Crude column was used. The column was washed with 10-15 column volumes (CV) of buffer A containing 30 mM imidazole and mut-MGLL was eluted with 5 CV of 50 mM Hepes buffer pH 7.5, 400 mM NaCl, 5% glycerol, 0.05% BME, 400 mM imidazole. In most preparations, 30 mM imidazole was included in Buffer A from the beginning of the preparation to reduce non-specific binding on the His-Trap column. […] Fractions were analysed by SDS-PAGE. […] Purification yields were determined by Bradford assay using the protein assay kit from BioRad according to manufacturer's instruction with BSA as a standard (Bradford 1976).

[5] = Circular dichroism structural analysis; format: physicochemical; settings: 5 μM protein, 10 mM cacodylic acid pH 7, 140 mM NaCl
Procedure: Circular dichroism experiments were performed on a Circular Dichroism Spectrometer Model 202 from Aviv Instruments Inc. The CD scans of wt-MGLL (hMGLL 1-303) (SEQ ID NO: 3) and TEV cleaved mut-MGLL (hMGLL 1-303 L169S, L176S) (SEQ ID NO: 5) (5 μM protein in 10 mM cacodylic acid pH 7 and 140 mM NaCl) were measured from 200 to 260 nm. Temperature melts were monitored at 210 nm.

[6] = size exclusion, purified in the absence of detergent

Molecule	Km (MGLL [1]) [µM]	Kcat (MGLL [2]) [s⁻¹]	Km (MGLL [2]) [µM]	quality of the melting transition [3]	Tm (midpoint of the melting transition) [3] [°C]	aggregation by size exclusion chromatography (in words) ([4]; detergent in the lysis buffer only)	aggregation [4, 6] [%]	monomer [4, 6] [%]	CD scans 200 to 260 nm compared with wt-MGLL purified in the presence of detergent [5]
CCCCC/C=C/C/C=C\C/C=C/C/C=C/CCCC(=O)Oc1ccc2ccc(=O)oc2c1 [C-A, Coumarin Arachidonate]	> 30								
wt-MGLL.1-303: wild-type human MGLL isoform 2 amino acids 1-303 with N-terminal His tag and TEV site, SEQ ID NO: 3 (protein, N-terminal His tag and TEV site; Human) MVDHHHHHHENLYFQGMPEESSPRRTPQSIPYQDLPHLVNADGQYLFCRYWKPTGTPKALIFVSHGAGEHSGRYEELARMLMGLDLLVFAHDHVGHGQSEGERMVVSDFHVFVRDVLQHVDSMQKDYPGLPVFLLGHSMGGAIAILTAAERPGHFAGMVLISPLVLANPESATTFKVLAAKVLNLVLPNLSLGPIDSSVLSRNKTEVDIYNSDPLICRAGLKVCFGIQLLNAVSRVERALPKLTVPFLLLQGSADRLCDSKGAYLLMELAKSQDKTLKIYEGAYHVLHKELPEVTNSVFHEINMWVSQRTATAGTASPP		1.13	162	very poor transition	58	complete aggregation	100		
mut-MGLL. 1-303, L169S, L176S: engineered human MGLL 1-303 with cap-domain mutations L169S, L176S; SEQ ID NO: 4, SEQ ID NO: 5 after TEV cleavage (protein, His tag and TEV site; SEQ ID 5 after TEV cleavage; Human) MVDHHHHHHENLYFQGMPEESSPRRTPQSIPYQDLPHLVNADGQYLFCRYWKPTGTPKALIFVSHGAGEHSGRYEELARMLMGLDLLVFAHDHVGHGQSEGERMVVSDFHVFVRDVLQHVDSMQKDYPGLPVFLLGHSMGGAIAILTAAERPGHFAGMVLISPLVLANPESATTFKVLAAKVLNSVLPNLSSGPIDSSVLSRNKTEVDIYNSDPLICRAGLKVCFGIQLLNAVSRVERALPKLTVPFLLLQGSADRLCDSKGAYLLMELAKSQDKTLKIYEGAYHVLHKELPEVTNSVFHEINMWVSQRTATAGTASPP		0.8	136	strong transition	56.7			90	similar
